Test [1] deals with human fibroblast activation protein alpha (FAP) on the cell surface (human) (UniProt Q12884). Description: flow cytometry, HT-1080FAP clone 33 cells, biotinylated antibody at 1.6 ng/ml, streptavidin-FITC. A general note: A flow cytometer gives signals particle by particle.
The target is the same in test [2]. Description: flow cytometry, HT-1080FAP clone 33 cells, biotinylated antibody at 40.0 ng/ml, streptavidin-FITC.
Test [3] has the same target. Put plainly: flow cytometry, HT-1080FAP clone 33 cells, antibody at 100.0 ng/ml, FITC anti-human IgG.
Test [4] has the same target. Description: competition flow cytometry, HT-1080FAP clone 33 cells, unlabelled competitor at 1.00 µg/ml against 1 µg/ml biotinylated cF19; signal of bound biotinylated cF19.
Test [5] has the same target. Description: flow cytometry, HT-1080FAP clone 33 cells, biotinylated antibody at 5,000.0 ng/ml, streptavidin-FITC.
For test [6] the target is unchanged. Put plainly: flow cytometry, HT-1080FAP clone 33 cells, antibody at 4.0 ng/ml, FITC anti-human IgG.
For test [7] the target is unchanged. Put plainly: flow cytometry, HT-1080FAP clone 33 cells, antibody at 500.0 ng/ml, FITC anti-human IgG.
For test [8] the target is unchanged. Put plainly: flow cytometry, HT-1080FAP clone 33 cells, biotinylated antibody at 200.0 ng/ml, streptavidin-FITC.
Test [9] shares this target. Description: competition flow cytometry, HT-1080FAP clone 33 cells, unlabelled competitor at 10.00 µg/ml against 1 µg/ml biotinylated cF19; signal of bound biotinylated cF19.
For test [10] the target is unchanged. Put plainly: competition flow cytometry, HT-1080FAP clone 33 cells, unlabelled competitor at 3.16 µg/ml against 1 µg/ml biotinylated cF19; signal of bound biotinylated cF19.
Test [11] has the same target. Description: flow cytometry, HT-1080FAP clone 33 cells, biotinylated antibody at 1,000.0 ng/ml, streptavidin-FITC.
The target is the same in test [12]. Put plainly: flow cytometry, HT-1080FAP clone 33 cells, antibody at 20.0 ng/ml, FITC anti-human IgG.
Test [13] shares this target. Put plainly: flow cytometry, HT-1080FAP clone 33 cells, antibody at 0.8 ng/ml, FITC anti-human IgG.
Test [14] shares this target. Put plainly: flow cytometry, MF-SH cells with endogenous FAP, antibody at 4000 ng/ml.
Test [15] has the same target. Put plainly: flow cytometry, HT-1080FAP clone 33 cells, biotinylated antibody at 8.0 ng/ml, streptavidin-FITC.
The target is the same in test [16]. Description: competition flow cytometry, HT-1080FAP clone 33 cells, unlabelled competitor at 31.66 µg/ml against 1 µg/ml biotinylated cF19; signal of bound biotinylated cF19.
Test [17] has as its target T1, recombinant membrane-bound human FAP solubilised in detergent extracts of transfected cells (293FAP 1/2, … (human, UniProt Q12884 1-760)).
T1 construct: Same protein as m5, but isolated from the cells; also called recombinant human FAP
T1 sequence (looked up): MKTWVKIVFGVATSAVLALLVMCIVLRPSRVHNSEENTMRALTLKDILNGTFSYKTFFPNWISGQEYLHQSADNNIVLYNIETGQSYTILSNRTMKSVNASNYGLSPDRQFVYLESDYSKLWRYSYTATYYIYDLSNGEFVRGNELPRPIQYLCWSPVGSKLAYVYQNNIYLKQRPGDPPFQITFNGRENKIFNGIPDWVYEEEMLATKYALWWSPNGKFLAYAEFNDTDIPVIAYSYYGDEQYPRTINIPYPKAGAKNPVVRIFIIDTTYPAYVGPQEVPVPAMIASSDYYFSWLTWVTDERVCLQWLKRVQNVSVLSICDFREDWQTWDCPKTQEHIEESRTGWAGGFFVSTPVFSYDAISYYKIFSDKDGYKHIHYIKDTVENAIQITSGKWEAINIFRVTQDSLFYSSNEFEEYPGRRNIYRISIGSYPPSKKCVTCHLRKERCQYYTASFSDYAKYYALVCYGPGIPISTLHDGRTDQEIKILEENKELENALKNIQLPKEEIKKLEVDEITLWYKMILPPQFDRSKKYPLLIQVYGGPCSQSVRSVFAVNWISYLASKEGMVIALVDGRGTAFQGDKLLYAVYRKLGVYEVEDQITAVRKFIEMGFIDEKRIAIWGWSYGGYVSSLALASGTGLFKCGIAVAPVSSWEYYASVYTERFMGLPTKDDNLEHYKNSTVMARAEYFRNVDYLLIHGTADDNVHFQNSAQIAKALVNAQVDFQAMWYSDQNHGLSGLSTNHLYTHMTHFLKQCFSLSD
Put plainly: sandwich ELISA, detergent extract of 293FAP 1/2 cells on cF19-coated plates, HRP-streptavidin.

For test [18], the target named is human fibroblast activation protein alpha (FAP) on the cell surface (human) (UniProt Q12884). Put plainly: flow cytometry, HT-1080FAP clone 33 cells, 1 µg/ml biotinylated cF19 without competitor (0.00 µg/ml).
In test [19] the target is T1, recombinant membrane-bound human FAP …. Description: sandwich ELISA, cF19 as capture antibody.
Test [20] deals with human fibroblast activation protein alpha (FAP) on the cell surface (human) (UniProt Q12884). Put plainly: flow cytometry, MF-SH cells with endogenous FAP, antibody at 500 ng/ml.
Test [21] shares this target. Description: flow cytometry, MF-SH cells with endogenous FAP, antibody at 1000 ng/ml.
Test [22] has the same target. Put plainly: flow cytometry, MF-SH cells with endogenous FAP, antibody at 2000 ng/ml.

For “hIgG1 (human immunoglobulin, IgG1 subclass), negative control (antibody)”, the Mean fluorescence intensity in test [1] stood at 0.3; in test [2], 0.2; in test [3] it was 0.12; in test [5] it was 0.2; in test [6], 0.12; in test [7] it was 0.12. Moreover, the Mean fluorescence intensity in test [8] was determined as 0.2; in test [11], 0.2; in test [12], 0.12; in [13], 0.12; in test [14] it was 0.6; in [15], 0.2. In addition, the Mean fluorescence concentration in [4] is 9; in [9] it was 9.8; in test [10], 11.3; in test [16] it was 10.3.

B1: LAHC (reshaped human anti-human FAP monoclonal antibody: F19 human reshaped light chain variable region version A with heavy chain variable region version C, … (antibody, V domains shown)
VH: QVQLVQSGAEVKKPGASVKVSCKTSRYTFTEYTIHWVRQAPGQRLEWIGGINPNNGIPNYNQKFKGRVTITVDTSASTAYMELSSLRSEDTAVYYCARRRIAYGYDEGHAMDYWGQGTLVTVSS
VL: DIVMTQSPDSLAVSLGERATINCKSSQSLLYSRNQKNYLAWYQQKPGQPPKLLIFWASTRESGVPDRFSGSGFGTDFTLTISSLQAEDVAVYYCQQYFSYPLTFGQGTKVEIKR
notes: The name joins light version A (LA) and heavy version C (HC); also called biotinylated LAHC; BIBH 1
As for B1, the binding result in test [17] is recorded as “binds”.

B2: chimeric F19 antibody (cF19), mouse F19 variable regions joined to human kappa and gamma-1 constant regions (antibody, human IgG1, kappa, V domains shown)
VH: VQLQQSGPELVKPGASVKMSCKTSRYTFTEYTIHWVRQSHGKSLEWIGGINPNNGIPNYNQKFKGRATLTVGKSSSTAYMELRSLTSEDSAVYFCARRRIAYGYDEGHAMDYWGQGTSVTVSS
VL: DIVMSQSPSSLAVSVGEKVTMSCKSSQSLLYSRNQKNYLAWFQQKPGQSPKLLIFWASTRESGVPDRFTGSGFGTDFNLTISSVQAEDLAVYDCQQYFSYPLTFGAGTKLELKR
notes: Biotinylated in some assays; also called biotinylated cF19
With B2, the Mean fluorescence intensity in test [1] came out at 0.3; in test [2], 1.3; in [3], 1.63; in test [5], 36.5; in [6], 0.17; in [7], 6.65. The Mean fluorescence intensity in [8] worked out at 4.5; in test [20], 1.8; in test [11], 18.1; in test [12], 0.43; in [13], 0.14; in test [21] it was 2.4. The Mean fluorescence intensity is 3.6 in test [14], 0.5 in test [15] and 3.3 in test [22]. Further, the Mean fluorescence concentration in test [18] came to 11.2; in test [4], 7.5; in [9] it was 1.3; in test [10], 4.8; in test [16], 1.2. Moreover, in test [19], the binding result is recorded as “binds”.

These data come from patent EP1098979B1 (Boehringer Ingelheim International GmbH, dated 2007).
